Test results taken from paper PMC12112554, “Estrogen-Related Receptor Potential Target Genes in Silkworm (Bombyx mori): Insights into Metabolic Regulation”.

T1: BmERR DBD (Bombyx mori, UniProt A0A1B1M0R7 103-178)
T1 sequence: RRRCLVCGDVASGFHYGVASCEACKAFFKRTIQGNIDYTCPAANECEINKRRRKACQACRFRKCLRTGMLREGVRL

B1: Tret1 CRE2 (dsDNA)
DNA 1: TTTTTGTAACCTTAAACTCCT
DNA 2: AGGAGTTTAAGGTTACAAAAA
B2: Tret1 CRE1 (dsDNA)
DNA 1: AGCTTCTCCTTGACGTGTAG
DNA 2: CTACACGTCAAGGAGAAGCT
B3: Tret1 CRE3 (dsDNA)
DNA 1: GCGGACTCACAAGGTCCTACCA
DNA 2: TGGTAGGACCTTGTGAGTCCGC
B4: GK CRE3 (dsDNA)
DNA 1: GATTGTCAATGTCAATGTCATGAACA
DNA 2: TGTTCATGACATTGACATTGACAATC
B5: FAH CRE1 (dsDNA)
DNA 1: TTTTTCCAAGGACGTTTGAG
DNA 2: CTCAAACGTCCTTGGAAAAA
B6: HPD CRE2 (dsDNA)
DNA 1: GGACTATAACCTCGTCTCTT
DNA 2: AAGAGACGAGGTTATAGTCC
B7: Ca7 CRE3 (dsDNA)
DNA 1: GACTTCGAATGTCATGTCGC
DNA 2: GCGACATGACATTCGAAGTC
B8: GlyP CRE3 (dsDNA)
DNA 1: ACGTCCAACGTCAAACCA
DNA 2: TGGTTTGACGTTGGACGT
B9: Akr2e CRE2 (dsDNA)
DNA 1: ACTAGTTAAGGTTACGCTGA
DNA 2: TCAGCGTAACCTTAACTAGT
B10: Ca7 CRE2 (dsDNA)
DNA 1: TTTATTGCCCTTGTAGGC
DNA 2: GCCTACAAGGGCAATAAA
B11: Atgl CRE3 (dsDNA)
DNA 1: CGCTCTGACATTGAAAAG
DNA 2: CTTTTCAATGTCAGAGCG
B12: Chsy1 CRE1 (dsDNA)
DNA 1: TCTCACAAGGTTGATGTC
DNA 2: GACATCAACCTTGTGAGA
B13: Ca7 CRE1 (dsDNA)
DNA 1: TAATGTGACTTTGAATCG
DNA 2: CGATTCAAAGTCACATTA
B14: Aldh1b1 CRE3 (dsDNA)
DNA 1: CCTGGTTAAGGTTAGAAGTC
DNA 2: GACTTCTAACCTTAACCAGG
B15: Ca7 CRE4 (dsDNA)
DNA 1: ATTCAATAGGTTATTTCT
DNA 2: AGAAATAACCTATTGAAT
B16: Acyl CRE1 (dsDNA)
DNA 1: TATATTGCCCTTGTAAGT
DNA 2: ACTTACAAGGGCAATATA
B17: HPD CRE1 (dsDNA)
DNA 1: ACACGCGCCCTTTATATA
DNA 2: TATATAAAGGGCGCGTGT
B18: HPD CRE3 (dsDNA)
DNA 1: TCCACAAACGTCAATAGC
DNA 2: GCTATTGACGTTTGTGGA
B19: GK CRE1 (dsDNA)
DNA 1: CCCCATGACCTTCGCCGG
DNA 2: CCGGCGAAGGTCATGGGG
B20: UGT46A2 CRE2 (dsDNA)
DNA 1: TCGTCGTAACCTTAAAGATA
DNA 2: TATCTTTAAGGTTACGACGA
B21: TPS CRE3 (dsDNA)
DNA 1: GGCTGTAACCTTGTCCTC
DNA 2: GAGGACAAGGTTACAGCC
B22: UGT33D8 CRE2 (dsDNA)
DNA 1: TCAGGCAAGGTCAAAGCC
DNA 2: GGCTTTGACCTTGCCTGA

These binders were tested against T1, BmERR DBD (assay: EMSA; not among Table 2 motifs; EMSA, Beyotime kit buffer (composition not given), 25 °C 25 min; 5% native PAGE in 1x TBE (45 mM Tris-borate, 1 mM EDTA, pH 8.3)). Conditions: protein: recombinant; label: biotin 3'; blunt.
B1: binds. B2: binds.

Each binder was assayed against T1, BmERR DBD (assay: EMSA; listed in Table 2; text names only CRE1 and CRE2; EMSA, Beyotime kit buffer (composition not given), 25 °C 25 min; 5% native PAGE in 1x TBE (45 mM Tris-borate, 1 mM EDTA, pH 8.3)). Conditions: protein: recombinant; label: biotin 3'; blunt.
B3: binds.

The binders below were run against T1, BmERR DBD (assay: EMSA; EMSA, Beyotime kit buffer (composition not given), 25 °C 25 min; 5% native PAGE in 1x TBE (45 mM Tris-borate, 1 mM EDTA, pH 8.3)). Conditions: protein: recombinant; label: biotin 3'; blunt.
B4: binds. B5: binds. B6: binds. B7: binds. B8: binds. B9: binds. B10: binds. B11: binds. B12: binds. B13: binds. B14: binds. B15: binds. B16: binds. B17: binds. B18: binds. B19: binds. B20: binds. B21: binds. B22: binds.
